Patent publication US12460006B2, “Antibodies against integrin alpha 11 beta 1” (Momenta Pharmaceuticals, Inc., priority 2019, dated 2025)
“Also recorded” adds a separate entry of the source. Blank lines part the entries; values can stand above or below the molecule they belong to.

Experiments:
human α11β1 = human α11β1 (Homo sapiens, UniProt Q9UKX5); test: ELISA binding to recombinant human α11β1; conditions: binding Yes/No
Protocol: (§1) 0.25 μg/mL of target antigen (recombinant human or mouse α11β1) was plated in a 96-well plate over night at 4° C. Plates were washed (PBS with 0.1% Tween-20), blocked (PBS with 2% BSA and 0.05% Tween-20) for 1 hour at room temperature and incubated with a range of antibody concentrations for 1 hour at room temperature. Subsequently, plates were washed and incubated with biotinylated anti-rabbit/mouse/human IgG in a 1:1000 dilution buffer and incubated for 1 hour at room temperature. After washing the plates, Streptavidin HRP was added at 1:200 in dilution buffer and incubated for 1 hour at room temperature. Ultra TMB ELISA substrate solution was added and the plates incubated for 5 minutes on a plate shaker. The reaction was stopped by adding stop solution to each well and plates were read at 450 nm.

mouse α11β1 = mouse α11β1 (Mus musculus, UniProt P61622); test: ELISA binding to recombinant mouse α11β1; conditions: for Murine α11β1 ELISA: binding Yes/No
mouse α11β1, sequence (P61622 23-1141 limits assumed): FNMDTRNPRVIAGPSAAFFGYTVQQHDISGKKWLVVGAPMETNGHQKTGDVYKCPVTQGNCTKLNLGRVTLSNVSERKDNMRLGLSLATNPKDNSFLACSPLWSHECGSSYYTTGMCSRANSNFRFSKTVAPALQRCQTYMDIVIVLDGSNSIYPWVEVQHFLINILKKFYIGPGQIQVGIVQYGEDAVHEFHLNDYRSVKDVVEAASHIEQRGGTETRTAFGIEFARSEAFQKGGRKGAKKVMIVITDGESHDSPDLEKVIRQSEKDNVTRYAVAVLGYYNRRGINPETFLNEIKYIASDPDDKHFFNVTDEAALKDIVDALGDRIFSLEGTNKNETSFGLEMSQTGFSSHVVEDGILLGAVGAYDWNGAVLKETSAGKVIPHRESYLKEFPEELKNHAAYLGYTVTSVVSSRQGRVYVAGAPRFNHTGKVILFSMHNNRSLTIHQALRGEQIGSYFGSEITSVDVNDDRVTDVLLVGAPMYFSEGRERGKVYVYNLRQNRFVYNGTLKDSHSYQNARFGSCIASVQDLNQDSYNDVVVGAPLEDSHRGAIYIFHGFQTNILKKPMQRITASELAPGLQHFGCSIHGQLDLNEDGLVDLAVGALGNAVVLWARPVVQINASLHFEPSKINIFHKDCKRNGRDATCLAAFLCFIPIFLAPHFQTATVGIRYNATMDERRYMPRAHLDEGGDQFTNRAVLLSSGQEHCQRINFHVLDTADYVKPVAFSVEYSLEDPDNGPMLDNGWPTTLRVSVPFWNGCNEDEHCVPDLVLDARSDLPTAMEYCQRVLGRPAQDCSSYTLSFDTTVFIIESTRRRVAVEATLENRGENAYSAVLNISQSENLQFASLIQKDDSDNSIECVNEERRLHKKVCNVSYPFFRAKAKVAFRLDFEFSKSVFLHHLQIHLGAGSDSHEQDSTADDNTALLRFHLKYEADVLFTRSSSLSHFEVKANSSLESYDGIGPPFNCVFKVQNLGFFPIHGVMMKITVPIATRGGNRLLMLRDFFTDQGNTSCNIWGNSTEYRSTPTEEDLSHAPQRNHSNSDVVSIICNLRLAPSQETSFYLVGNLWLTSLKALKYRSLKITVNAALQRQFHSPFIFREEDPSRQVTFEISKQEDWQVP
mouse α11β1, sequence (P09055 21-728 partner limits assumed): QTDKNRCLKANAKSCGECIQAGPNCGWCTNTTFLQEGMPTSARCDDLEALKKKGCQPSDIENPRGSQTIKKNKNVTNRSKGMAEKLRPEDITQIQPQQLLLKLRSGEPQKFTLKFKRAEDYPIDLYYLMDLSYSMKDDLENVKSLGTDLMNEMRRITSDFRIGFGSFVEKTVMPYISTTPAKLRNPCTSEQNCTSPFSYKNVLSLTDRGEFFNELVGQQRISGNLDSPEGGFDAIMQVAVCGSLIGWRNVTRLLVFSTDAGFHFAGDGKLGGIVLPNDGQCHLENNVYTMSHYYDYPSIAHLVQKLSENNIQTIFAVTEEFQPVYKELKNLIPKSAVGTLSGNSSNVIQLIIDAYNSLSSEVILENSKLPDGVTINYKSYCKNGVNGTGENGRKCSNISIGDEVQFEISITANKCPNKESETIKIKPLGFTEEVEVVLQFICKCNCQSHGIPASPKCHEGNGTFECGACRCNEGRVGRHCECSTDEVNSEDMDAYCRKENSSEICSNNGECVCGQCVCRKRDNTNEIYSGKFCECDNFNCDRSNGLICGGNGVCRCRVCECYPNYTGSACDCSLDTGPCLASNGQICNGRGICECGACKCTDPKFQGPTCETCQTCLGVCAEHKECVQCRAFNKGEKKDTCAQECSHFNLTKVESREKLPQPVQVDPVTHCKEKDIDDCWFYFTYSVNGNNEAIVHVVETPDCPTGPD
Protocol: as §1

α1β1, α2β1 and/or α10β1 = test: Counter-screen for cross-reactivity to other collagen receptors; format: binding, human; conditions: for Off Target: cross-reactivity to α1β1, α2β1, α10β1
Protocol: Wistar rats were immunized with recombinant human α11β1 protein. An enzyme-linked immunosorbent assay (ELISA) was used to test an immune response against target human and mouse proteins. Subsequently, cell fusion (by electro fusion) was performed with animals that produced a good immune response. All fused cells were plated in a 96-well plate and supernatants were screened by ELISA against soluble human and mouse α11β1. Positive clones were counter-screened against human α1β1, α2β1 and α10β1. […] Purified antibodies were then generated from the selected clones and heavy chain and light chain variable domain sequences were obtained from each purified antibody.
10 mice from 5 different strains were immunized with an appropriate mixture of human α11β1, mouse α11β1 and tolerance breaking protein. Plasma titers were evaluated by ELISA against a mixture of human and mouse α11β1. Popliteal, inguinal, and iliac lymph nodes were collected. ELISA-positive anti-human/mouse α11β1 hybridomas were expanded and subjected to a secondary screen against human and mouse α11β1, control HIS protein, and a counter-screen was performed against human […], α2β1 and α10β1. Supernatant IgG concentration was sufficient for functional screening. Selected hybridomas satisfying all the criteria were cloned and clonal hybridomas were confirmed by ELISA against human and mouse α11β1 and subsequently scaled-up and IgGs were purified. Heavy and light chain variable regions of selected hybridomas were then sequenced.
α11β1 belongs to a family of collagen receptors and has a relatively high homology to them. Therefore, the novel antibodies of this invention were counter-screened against α1β1, α2β1 and/or α10β1. Table 2 includes results of cross-reactivity to the other receptors.

[1] = test system: CHO-K1 cells expressing human α11; test: Cell adhesion inhibition (xCelligence), type I collagen; format: cell-based; conditions: for inhibition of cell adhesion to type I collagen: CHO-K1 hu α11 cells; for Inhibition of CHO-K1 adhesion to collagen: Yes/No
Protocol: 0.6×10^6 cells/mL were incubated with each antibody at a range of concentrations for 20 minutes at 37° C. E-Plate VIEW 96 PET plate coated with 100 ng/mL type I collagen or PBS overnight at room temperature was blocked in 3% BSA for 1 house at room temperature. After washing the plate with PBS, cell and antibody mixture was added to the wells and the plate was places into an xCelligence machine. Cell adhesion was recorded over 6 hours. The time point of maximum cell adhesion was used for comparison relative to control.
A CHO-K1 hu α11 cell line was used to assess the ability of mAbs to block α11β1-mediated binding to type I collagen. […] In the “Untreated” condition, cells were plated on type I collagen but no antibody was added and in the “Uncoated” condition, cells were seeded onto BSA-coated wells containing no type I collagen. Statistics were performed using one-way ANOVA followed by Dunnett's multiple comparisons test. […] Therefore, it is possible that these mAbs bind on an α11β1 domain that keeps the integrin in a low or intermediate affinity state. […] Nine human mAbs were also tested for their ability to inhibit the binding of human CHO-α11 cells to type I collagen.

[2] = test system: Human Pulmonary Fibroblasts; test: Fibroblast-to-Myofibroblasts Transition (FMT), αSMA expression; format: cell-based; conditions: for inhibition of αSMA expression / FMT: TGFβ-induced FMT; for Inhibition of FMT: Yes/No
Protocol: Human Pulmonary Fibroblasts (ScienCell) were cultured in complete Fibroblast Growth Medium (ScienCell) until 80% confluent. Cells were washed and harvested using Accutase. Cells were seeded onto tissue culture-treated 96 well plates at 20,000 cells/well in complete Fibroblast Growth Medium. After 24 hours, cells were washed and starved in serum reduced medium for an additional 24 hours. After starvation, cells were treated with TGFβ-1 (R&D Systems) with or without anti-α11 antibodies. A polyclonal rabbit anti-human α11 antibody was used as a positive control. Appropriate IgG isotype controls were also included. After 48 hours, cells were harvested, fixed, permeabilized and stained with AlexaFluor488 Labeled Anti-αSMA (α-smooth muscle actin) (Invitrogen). Cells were acquired on a FACS Verse (Benton Dickson) to determine expression levels of αSMA. Data were analyzed by gating on single cells and determining the geometric Mean Fluorescence Intensity (gMFI) in the FITC channel for each sample. gMFI for each sample was normalized to the untreated control and presented as % inhibition.
In addition to the binding abilities described above, it is important for an anti-α11β1 antibody to inhibit the fibroblast-to-myofibroblast transition (FMT). It is now appreciated that myofibroblasts are a heterogeneous cell population, existing in different activation states, with the main function of producing and contracting collagen extracellular matrix (ECM). FMT is a multi-step event that is controlled by a changing mechanical environment in tissues undergoing repair. TGFβ is one of the potent factors that potentiates this process and alpha smooth muscle actin (αSMA) is one of the main markers that becomes overexpressed when fibroblasts are undergoing the transition to becoming myofibroblasts. The presence of αSMA enhances fibroblast contraction and guides myofibroblast activation through an intracellular feedback loop. Because αSMA is the main molecular marker of myofibroblasts, the ability of the novel anti-α11β1 mAbs to inhibit αSMA expression in TGFβ-induced FMT was tested.

human α11β1, sequence (Q9UKX5 23-1141 limits assumed): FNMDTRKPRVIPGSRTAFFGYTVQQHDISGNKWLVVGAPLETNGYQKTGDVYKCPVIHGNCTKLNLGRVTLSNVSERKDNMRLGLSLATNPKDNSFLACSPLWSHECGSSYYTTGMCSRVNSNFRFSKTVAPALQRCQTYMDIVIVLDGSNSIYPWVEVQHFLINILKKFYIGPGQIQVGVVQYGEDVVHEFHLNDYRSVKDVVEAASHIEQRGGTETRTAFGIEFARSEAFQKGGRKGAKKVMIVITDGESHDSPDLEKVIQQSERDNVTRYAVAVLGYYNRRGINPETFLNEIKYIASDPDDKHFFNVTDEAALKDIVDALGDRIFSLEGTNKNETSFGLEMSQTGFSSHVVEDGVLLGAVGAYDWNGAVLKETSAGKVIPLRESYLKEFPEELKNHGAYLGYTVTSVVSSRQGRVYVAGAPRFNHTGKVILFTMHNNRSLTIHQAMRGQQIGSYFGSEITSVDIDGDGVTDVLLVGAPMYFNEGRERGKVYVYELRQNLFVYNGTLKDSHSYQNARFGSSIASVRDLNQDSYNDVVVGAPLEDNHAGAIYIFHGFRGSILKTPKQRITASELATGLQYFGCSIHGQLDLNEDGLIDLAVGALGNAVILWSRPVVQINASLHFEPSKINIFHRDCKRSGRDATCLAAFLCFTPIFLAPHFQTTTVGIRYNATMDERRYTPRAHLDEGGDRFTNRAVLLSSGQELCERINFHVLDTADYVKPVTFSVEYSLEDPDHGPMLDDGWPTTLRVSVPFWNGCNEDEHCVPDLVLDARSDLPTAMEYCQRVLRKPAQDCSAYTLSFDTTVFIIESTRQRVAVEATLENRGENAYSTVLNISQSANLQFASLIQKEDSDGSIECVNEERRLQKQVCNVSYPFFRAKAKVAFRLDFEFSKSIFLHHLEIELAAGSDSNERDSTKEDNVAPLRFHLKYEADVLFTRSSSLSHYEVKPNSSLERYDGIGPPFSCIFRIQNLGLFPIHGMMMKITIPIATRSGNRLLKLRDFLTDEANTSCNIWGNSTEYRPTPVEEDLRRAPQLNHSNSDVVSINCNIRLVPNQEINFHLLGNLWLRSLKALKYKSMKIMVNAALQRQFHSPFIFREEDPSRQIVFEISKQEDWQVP
human α11β1, sequence (P05556 21-728 partner limits assumed): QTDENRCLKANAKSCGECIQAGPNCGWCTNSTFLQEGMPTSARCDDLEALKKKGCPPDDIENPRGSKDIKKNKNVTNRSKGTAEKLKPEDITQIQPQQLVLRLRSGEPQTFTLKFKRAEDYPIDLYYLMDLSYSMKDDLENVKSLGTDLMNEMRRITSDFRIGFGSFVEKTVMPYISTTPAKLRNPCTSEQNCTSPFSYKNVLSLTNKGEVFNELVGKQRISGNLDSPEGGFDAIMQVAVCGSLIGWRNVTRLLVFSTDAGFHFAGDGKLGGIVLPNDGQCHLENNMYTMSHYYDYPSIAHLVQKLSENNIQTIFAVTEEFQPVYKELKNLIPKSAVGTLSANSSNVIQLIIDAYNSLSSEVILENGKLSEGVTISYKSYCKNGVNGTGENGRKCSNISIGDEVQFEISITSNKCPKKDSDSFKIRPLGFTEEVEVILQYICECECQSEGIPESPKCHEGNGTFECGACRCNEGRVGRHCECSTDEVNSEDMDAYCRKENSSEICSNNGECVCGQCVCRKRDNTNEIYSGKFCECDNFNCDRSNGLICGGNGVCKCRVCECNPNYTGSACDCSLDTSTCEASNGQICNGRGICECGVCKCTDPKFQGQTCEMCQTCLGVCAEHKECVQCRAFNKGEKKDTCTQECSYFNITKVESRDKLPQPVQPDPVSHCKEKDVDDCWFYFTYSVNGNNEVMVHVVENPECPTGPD

B1: 16E10: rabbit anti-α11β1 mAb; heavy chain SEQ ID NO: 161, light chain SEQ ID NO: 162 (antibody)
heavy: METGLRWLLLVAVLKGVQCQSLEESGGDLVKPGASLTLTCRVSGFSFSSSYYMCWVRQAPGKGLEWIACIGTTRGSTYYATWAKGRFTISKISSTTVTLQMTSLTDADTATYFCARDATGYRINTIGLYFNLWGPGTLVTVSSGQPKAPSVFPLAPCCGDTPSSTVTLGCLVKGYLPEPVTVTWNSGTLTNGVRTFPSVRQSSGLYSLSSVVSVTSSSQPVTCNVAHPATNTKVDKTVAPSTCSKPMCPPPELPGGPSVFIFPPKPKDTLMISRTPEVTCVVVDVSQDDPEVQFTWYINNEQVRTARPPLREQQFNSTIRVVSTLPIAHQDWLRGKEFKCKVHNKALPAPIEKTISKARGQPLEPKVYTMGPPREELSSRSVSLTCMINGFYPSDISVEWEKNGKAEDNYKTTPTVLDSDGSYFLYSKLSVPTSEWQRGDVFTCSVMHEALHNHYTQKSISRSPGK
light: MDTRAPTQLLGLLLLWLPGARCAFELTQTPSSVEAAVGGTPTIKCQASQTIYSYLSWYQQKPGQPPKLLIYEASKLASGVPSRFSGSGSGTDYTLTISDLECADAATYYCQSYHGTASTEYNTFGGGTEVVVRGDPVAPTVLIFPPAADQVATGTVTIVCVANKYFPDVTVTWEVDGTTQTTGIENSKTPQNSADCTYNLSSTLTLTSTQYNSHKEYTCKVTQGTTSVVQSFNRGDC
- Human α11β1 ELISA (human α11β1): Yes
- binding to mouse α11β1 (mouse α11β1): does not bind mouse α11β1
- Murine α11β1 ELISA (mouse α11β1): No
- Off Target (α1β1, α2β1 and/or α10β1): No
- inhibition of cell adhesion to type I collagen [1]: inhibit both ligand binding and FMT
- Inhibition of CHO-K1 adhesion to collagen [1]: Yes
- inhibition of αSMA expression / FMT [2]: inhibit both ligand binding and FMT
- Inhibition of FMT [2]: Yes

B2: 40G10H11: rat anti-α11β1 mAb; VH SEQ ID NO: 157, VL SEQ ID NO: 158 (antibody, V domains shown)
VH: MDIRLSLGFLVLFIKGDQCAVQLVESGGGLVQPGRSLKLSCAASRITFTDYYMAWVRQAPTKGLEWVATISSDGGDTFYRDSVKGRFTISRDNAKSTLYLQMVSLRSEDTATYYCSTDRGAQFGYWGQGTLVTVSS
VL: MAPVQLLGLLLIWLPAMRCDIQMTQSPSFLSASVGDRVSINCKASQNVHENLNWYQQKLGEAPKRLIYNTNNLQTGIPSRFSGSGSGADYTLTISSLQPEDFATYFCLQHNAFPYTFGPGTKLELK
- Human α11β1 ELISA (human α11β1): Yes
- Murine α11β1 ELISA (mouse α11β1): Yes
- cross-reaction with other collagen receptors (α1β1, α2β1 and/or α10β1): does cross-react with other collagen receptors (α1β1, a2β1 and a10β1)
- Off Target (α1β1, α2β1 and/or α10β1): Yes (all)
- inhibition of cell adhesion to type I collagen [1]: strongly inhibited cell adhesion; also recorded: inhibited cell adhesion
- Inhibition of CHO-K1 adhesion to collagen [1]: Yes
- inhibition of αSMA expression / FMT [2]: significantly inhibited αSMA expression
- Inhibition of FMT [2]: Yes

B4: 16G7: rabbit anti-α11β1 mAb; heavy chain SEQ ID NO: 159, light chain SEQ ID NO: 160 (antibody)
heavy: METGLRWLLLVAVFKGVQCQEQLVESGGDLVKPGASLTLTCTASGFSFNKNYWMCWVRQAPGKGLEWIGCIYNGDGNTYYASWVNGRFTISKTSSTTVTLQMTSLTVADTAIYFCARLLNMWGPGTLVTVSSGQPKAPSVFPLAPCCGDTPSSTVTLGCLVKGYLPEPVTVTWNSGTLTNGVRTFPSVRQSSGLYSLSSVVSVTSSSQPVTCNVAHPATNTKVDKTVAPSTCSKPMCPPPELPGGPSVFIFPPKPKDTLMISRTPEVTCVVVDVSQDDPEVQFTWYINNEQVRTARPPLREQQFNSTIRVVSTLPIAHQDWLRGKEFKCKVHNKALPAPIEKTISKARGQPLEPKVYTMGPPREELSSRSVSLTCMINGFYPSDISVEWEKNGKAEDNYKTTPTVLDSDGSYFLYSKLSVPTSEWQRGDVFTCSVMHEALHNHYTQKSISRSPGK
light: MDTRAPTQLLGLLLLWLPGARCADIVMTQTPASVEAAVGGTVTIKCQASESIGNALAWYQQKPGQPPKLLIYTAATLASGVPSRFSGSGSGTEFTLTISGVQCDDAATYYCQSYYFTSVSSYGNAFGGGTEVVVKGDPVAPTVLIFPPAADQVATGTVTIVCVANKYFPDVTVTWEVDGTTQTTGIENSKTPQNSADCTYNLSSTLTLTSTQYNSHKEYTCKVTQGTTSVVQSFNRGDC
- Human α11β1 ELISA (human α11β1): Yes
- Murine α11β1 ELISA (mouse α11β1): Yes
- Off Target (α1β1, α2β1 and/or α10β1): No
- inhibition of cell adhesion to type I collagen [1]: didn't have an effect on cell adhesion
- Inhibition of CHO-K1 adhesion to collagen [1]: No
- inhibition of αSMA expression / FMT [2]: inhibit FMT
- Inhibition of FMT [2]: Yes

Continued, in another order:

- Human α11β1 ELISA (human α11β1): Yes
- Murine α11β1 ELISA (mouse α11β1): No/Low
- Off Target (α1β1, α2β1 and/or α10β1): No
B3: 24E4G6: rat anti-α11β1 mAb; VH SEQ ID NO: 147, VL SEQ ID NO: 148 (antibody, V domains shown)
VH: MELELSLIFIFSLLKDVQCEVQLVESGGSLVQPGGSLKLSCVASGYTFSNYWMDWVRQSPGKSLEWIGEINTDGRRTNYAPSIKDRFTISRDNAKSTLYLQMSNVKSDDTAIYYCTILRVYPHYFDYWGQGVMVTVSS
VL: MMSPAQFLFLLMLWIQEARGDVVMTQTPPSLSVAIGQSVSISCKSSQSLVYSDGETYLHWFLQSPGRSPKRLIYHVSNLGSGVPDRFSGTGSLTDFTLRISRVEAEDLGVYYCAQTTHFPPTFGAGTKLELK
- inhibition of cell adhesion to type I collagen [1]: nor did it inhibit cell adhesion
- Inhibition of CHO-K1 adhesion to collagen [1]: No
- inhibition of αSMA expression / FMT [2]: significantly inhibited αSMA expression
- Inhibition of FMT [2]: Yes

- Human α11β1 ELISA (human α11β1): Yes
- Murine α11β1 ELISA (mouse α11β1): Yes
- Off Target (α1β1, α2β1 and/or α10β1): No
B5: 9-E16: mouse anti-α11β1 mAb; VH SEQ ID NO: 111, VL SEQ ID NO: 112 (antibody, V domains shown)
VH: EVQLQQSGPELVKPGASVKISCKASGYTFTDYYMHWVKQKPGQGLEWIGEIYPGSGNPYYNEKFKGKATLTADKSSSSAYMQLSSLTSEDSAVYFCARTSYGRVGTGFAYWGQGTLVTVSA
VL: NFVMTQTPLSLPVSLGDQASISCRSSQSLLHSNGNTYLHWYLQKPGQSPKLLIYKVSNRFSGVPDRFSGSGSGTDFTLKINRVETEDLGIYFCSQSSHVPTFGAGTKLELK
- inhibition of cell adhesion to type I collagen [1]: significantly blocked cell adhesion; also recorded: decrease cell adhesion
- Inhibition of CHO-K1 adhesion to collagen [1]: Yes
- inhibition of αSMA expression / FMT [2]: FMT inhibitors
- Inhibition of FMT [2]: Yes
